Measurements from article PMC4970707.

Assays:
[1] = target: NprR(ΔHTH)(Y223A/F225A) (Bacillus thuringiensis (strain 407)); test: crystal structure; NprR(ΔHTH)(Y223A/F225A) alone, crystallized at 18°C in 1.0 M Na citrate, 0.1 M Hepes pH 7.6; 3.25 Å, space group P 21 21 21, 2 molecules per asymmetric unit
[2] = target: NprR from B. thuringiensis strain 407 (NprR-6His) (Bacillus thuringiensis (strain 407)); test: MST; 33 nM NprR labelled with NT-495-NHS; Bt Spo0F serially diluted from about 260 μM to 8 nM; 5% glycerol in MST buffer (50 mM Tris-HCl pH 7.4, 150 mM NaCl, 10 mM MgCl2, 0.05% Tween-20); 20% LED power, 40% IR-laser power; absence of NprX; apparent Kd

Molecule	stoichiometry N [1]	Kd [2] [µM]
NprR(ΔHTH)(Y223A/F225A) (domain or fragment)	2	
Spo0F from B. thuringiensis (6His-Spo0F) (natural protein) MEGKILIVDDQYGIRVLLHEVFQKEGYQTFQAANGFQALDIVKKDNPDLVVLDMKIPGMDGIEIFKACKEIDESIKVILMSAYGELDMIQEAKDLGALMHFAKPFDIDEIRQAVRNELAVEA		5
